Measured values as given in doi:10.1101/2022.01.11.475891, “Structural insights as to how iron-loaded siderophores are imported into Mycobacterium tuberculosis by IrtAB” (bioRxiv, 2022).

Target: T1, IrtA, full length (subunit of full-length Mtb IrtAB) (M. tuberculosis H37Rv, UniProt P9WQJ9 1-859)
T1 construct: also called Rv1348
T1 sequence: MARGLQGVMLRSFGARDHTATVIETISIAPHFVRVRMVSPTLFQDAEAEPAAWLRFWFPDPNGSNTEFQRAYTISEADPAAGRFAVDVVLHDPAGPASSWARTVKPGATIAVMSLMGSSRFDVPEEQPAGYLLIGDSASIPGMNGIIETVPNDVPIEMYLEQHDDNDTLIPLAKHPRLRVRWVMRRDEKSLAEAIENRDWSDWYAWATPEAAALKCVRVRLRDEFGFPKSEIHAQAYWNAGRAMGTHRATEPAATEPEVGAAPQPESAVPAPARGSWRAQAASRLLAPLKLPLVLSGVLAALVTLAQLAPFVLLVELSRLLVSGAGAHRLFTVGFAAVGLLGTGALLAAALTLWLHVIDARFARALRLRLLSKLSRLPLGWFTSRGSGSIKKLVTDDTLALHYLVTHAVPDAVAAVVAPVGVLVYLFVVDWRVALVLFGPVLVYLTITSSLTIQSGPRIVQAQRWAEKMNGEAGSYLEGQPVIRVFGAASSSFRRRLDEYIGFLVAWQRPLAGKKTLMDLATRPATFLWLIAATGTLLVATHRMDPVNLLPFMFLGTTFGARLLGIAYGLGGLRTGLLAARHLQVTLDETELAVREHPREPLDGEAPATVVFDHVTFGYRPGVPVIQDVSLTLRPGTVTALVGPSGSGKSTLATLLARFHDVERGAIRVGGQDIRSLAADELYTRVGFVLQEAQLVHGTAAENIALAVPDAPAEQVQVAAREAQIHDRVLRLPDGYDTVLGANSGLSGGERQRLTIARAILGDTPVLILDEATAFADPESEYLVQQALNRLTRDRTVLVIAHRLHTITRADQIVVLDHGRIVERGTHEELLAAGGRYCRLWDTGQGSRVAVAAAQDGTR
Assay: cryo-EM structure; full-length IrtAB in digitonin, no nucleotide added; 20 mM MES, 150 mM NaCl, pH 6.5; inward-facing
Settings: both partners purified

B1: IrtB with a C-terminal 10x His tag (subunit of Mtb IrtAB) (natural protein)
chain: MIRTWIALVPNDHRARLIGFALLAFCSVVARAVGTVLLVPLMAALFGEAPQRAWLWLGWLSAATVAGWVLDAVTARIGIELGFAVLNHTQHDVADRLPVVRLDWFTAENTATARQAIAATGPELVGLVVNLVTPLTSAILLPAVIALALLPISWQLGVAALAGVPLLLGALWASAAFARRADTAADKANTALTERIIEFARTQQALRAARRVEPARSLVGNALASQHTATMRLLGMQIPGQLLFSIASQLALIVLAGTTAALTITGTLTVPEAIALIVVMVRYLEPFTAVSELAPALESTRATLGRIGSVLTAPVMVAGSGTWRDGAVVPRIEFDDVAFGYDGGSGPVLDGVSFCLQPGTTTAIVGPSGCGKSTILALIAGLHQPTRGRVLIDGTDVATLDARAQQAVCSVVFQHPYLFHGTIRDNVFAADPGASDDQFAQAVRLARVDELIARLPDGANTIVGEAGSALSGGERQRVSIARALLKAAPVLLVDEATSALDAENEAAVVDALAADPRSRTRVIVAHRLASIRHADRVLFVDDGRVVEDGSISELLTAGGRFSQFWRQQHEAAEWQILAE
notes: IrtB (Rv1349) of Mycobacterium tuberculosis H37Rv, TMD and NBD; The same IrtB chain stands in full-length IrtAB and in IrtAB(ΔSID); also called Rv1349
binding result: binds
